Data published in paper PMC12578645.

Molecular target: gB-Ecto.H516P (HSV-1 glycoprotein B ectodomain with H516P and an appended foldon; postfusion) (HSV-1 KOS strain) (UniProt P06437)
Experiment: cryo-EM structure

gB-Ecto.H516P (HSV-1 glycoprotein B ectodomain with H516P and an appended foldon; postfusion) (from UniProt P06437 31-728) (domain or fragment)
stoichiometry N: 3
